From PMC4987290 (The Journal of Cell Biology, 2016)

What was measured:
[1] = molecular target: Myo1E (myosin 1E) (UniProt Q12965); test: reciprocal co-IP of endogenous proteins, immunoblot; settings: sites S202
[2] = molecular target: T1, recombinant SH3P2 (human, UniProt Q92882 1-214); test: pull-down
T1 sequence (looked up): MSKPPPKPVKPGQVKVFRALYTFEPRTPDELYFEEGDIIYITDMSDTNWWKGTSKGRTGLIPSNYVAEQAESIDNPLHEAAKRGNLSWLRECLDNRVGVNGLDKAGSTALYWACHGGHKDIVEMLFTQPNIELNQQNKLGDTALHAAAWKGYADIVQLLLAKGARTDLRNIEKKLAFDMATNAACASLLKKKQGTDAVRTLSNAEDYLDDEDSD

## SH3P2 (from UniProt Q92882) 10% FBS, 10 min
[1]; reference: serum-deprived cells
  other: % of lysate Myo1E associated with SH3P2: weaker; reference 78.4 ± 6.8

## SH3P2 (from UniProt Q92882) 10 µM PD184352, 4 h
[1]; reference: untreated cells
  other: % of lysate Myo1E associated with SH3P2: stronger; reference 6.1 ± 2.1

B1: GST-Myo1E(SH3) (domain or fragment, human, UniProt Q12965 1039-1108, looked up)
chain: AGGRPKPQPKPKPQVPQCKALYAYDAQDTDELSFNANDIIDIIKEDPSGWWTGRLRGKQGLFPNNYVTKI
[2]
  binding result: binds
